Data set [1] concerns the molecule itself. In words: sedimentation assay of polymers.
Data set [2] concerns the molecule itself. In words: sedimentation assay of polymers. The source holds these as a separate data set.

Positions count from the first letter of the chain named. Numbers in names are those of the source. Like-named read-outs stand apart in the source and are kept apart here.

Experimental findings from article PMC4641749 (Molecular microbiology, 2015) are described below.

B1: FtsZ (wild type, Escherichia coli) (natural protein, E. coli, UniProt P0A9A6 1-383, looked up)
chain: MFEPMELTNDAVIKVIGVGGGGGNAVEHMVRERIEGVEFFAVNTDAQALRKTAVGQTIQIGSGITKGLGAGANPEVGRNAADEDRDALRAALEGADMVFIAAGMGGGTGTGAAPVVAEVAKDLGILTVAVVTKPFNFEGKKRMAFAEQGITELSKHVDSLITIPNDKLLKVLGRGISLLDAFGAANDVLKGAVQGIAELITRPGLMNVDFADVRTVMSEMGYAMMGSGVASGEDRAEEAAEMAISSPLLEDIDLSGARGVLVNITAGFDLRLDEFETVGNTIRAFASDNATVVIGTSLDPDMNDELRVTVVATGIGMDKRPEITLVTNKQVQQPVMDRYQQHGMAPLTQEQKPVAKVVNDNAPQTAKEPDYLDIPAFLRKQAD
In the case of B1, the binding result in data set [1] is on record as “binds”.

B2: FtsZ_(L169R) (Escherichia coli FtsZ with the L169R lesion) (natural protein, E. coli, UniProt P0A9A6 1-383, looked up)
chain: B1 chain with L169R
As for B2, in data set [2], the binding result is reported as “binds”.
